In PMC8897274 (Structure (London, England : 1993), 2021) one finds binding result and Kd data, which are given here for seven molecules.

Numbering of substitutions follows the chain as printed. Ends that are not written are not given here.

The chains are these.
T1: PCNA2 subunit of S. solfataricus PCNA (S. solfataricus, UniProt Q97Z84 1-245)
T1 sequence: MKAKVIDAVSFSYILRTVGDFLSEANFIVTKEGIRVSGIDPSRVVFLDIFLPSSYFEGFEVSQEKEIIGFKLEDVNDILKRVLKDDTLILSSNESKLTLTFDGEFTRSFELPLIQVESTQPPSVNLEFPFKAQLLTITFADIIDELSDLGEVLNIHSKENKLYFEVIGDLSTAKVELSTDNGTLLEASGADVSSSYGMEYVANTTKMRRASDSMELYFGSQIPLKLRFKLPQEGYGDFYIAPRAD

T2: PCNA1 subunit of S. solfataricus PCNA (S. solfataricus, UniProt P57766 1-249)
T2 sequence: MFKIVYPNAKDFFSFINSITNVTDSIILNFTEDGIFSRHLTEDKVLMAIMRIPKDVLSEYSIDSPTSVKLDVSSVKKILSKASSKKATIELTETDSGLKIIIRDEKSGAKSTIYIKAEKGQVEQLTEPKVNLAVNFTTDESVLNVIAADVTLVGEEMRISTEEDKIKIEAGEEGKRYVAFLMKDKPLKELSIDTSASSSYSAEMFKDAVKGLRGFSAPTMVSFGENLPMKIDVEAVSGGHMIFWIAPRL

T3: DNA ligase from S. solfataricus (Lig), wild type (S. solfataricus, UniProt Q980T8 1-601)
T3 sequence: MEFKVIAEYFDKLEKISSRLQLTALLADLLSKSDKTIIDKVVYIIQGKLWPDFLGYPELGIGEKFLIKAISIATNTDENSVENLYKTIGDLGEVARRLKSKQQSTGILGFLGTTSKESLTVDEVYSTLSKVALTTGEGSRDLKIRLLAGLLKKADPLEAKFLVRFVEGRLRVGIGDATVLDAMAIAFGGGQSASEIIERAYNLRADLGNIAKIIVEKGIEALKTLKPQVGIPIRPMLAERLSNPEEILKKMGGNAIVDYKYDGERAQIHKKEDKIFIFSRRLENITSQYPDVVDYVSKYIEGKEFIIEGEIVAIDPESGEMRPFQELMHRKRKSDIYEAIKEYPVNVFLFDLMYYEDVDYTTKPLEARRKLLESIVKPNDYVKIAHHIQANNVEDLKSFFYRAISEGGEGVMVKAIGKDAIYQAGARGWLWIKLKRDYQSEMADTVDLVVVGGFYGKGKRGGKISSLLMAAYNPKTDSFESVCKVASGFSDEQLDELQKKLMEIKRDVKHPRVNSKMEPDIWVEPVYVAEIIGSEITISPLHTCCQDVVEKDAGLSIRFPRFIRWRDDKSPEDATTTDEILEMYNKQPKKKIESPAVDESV

T4: PCNA_(1–2-3) heterotrimer of S. solfataricus (S. solfataricus, UniProt P57766 1-249; Q97Z84 1-245; P57765 1-244)
T4 sequence 1: T2 sequence
T4 sequence 2: T1 sequence
T4 sequence 3: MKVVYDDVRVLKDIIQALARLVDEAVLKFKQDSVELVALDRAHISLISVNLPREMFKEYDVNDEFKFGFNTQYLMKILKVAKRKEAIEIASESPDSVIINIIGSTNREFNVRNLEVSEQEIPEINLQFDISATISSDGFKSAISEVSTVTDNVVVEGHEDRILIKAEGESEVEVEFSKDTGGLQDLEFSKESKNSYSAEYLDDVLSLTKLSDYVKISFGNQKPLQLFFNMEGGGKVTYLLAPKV

T5: PCNA1–2 heterodimer of S. solfataricus (S. solfataricus, UniProt P57766 1-249; Q97Z84 1-245)
T5 sequence 1: T2 sequence
T5 sequence 2: T1 sequence

T6: DNA ligase (Lig);PCNA1-PCNA2-PCNA3 heterotrimer (S. solfataricus;S. solfataricus, UniProt Q980T8;P57766;Q97Z84;P57765 1-601;1-249;1-245;1-244, |)
T6 sequence 1: T3 sequence
T6 sequence 2: T2 sequence
T6 sequence 3: T1 sequence
T6 sequence 4: T4 sequence 3

B1: PCNA3 subunit of S. solfataricus PCNA (natural protein)
chain: T4 sequence 3
B2: 47 bp 3'dideoxy nicked DNA (dsDNA)
DNA 1: GTATCCTCGTAGTGCAGATGCGTC
DNA 2: GTCGGACTGATTCGGTAGATCTG
DNA 3: CAGATCTACCGAATCAGTCCGACGACGCATCTGCACTACGAGGATAC
modifications: 3'-dideoxy terminus of upstream strand; 5'PO4 on downstream strand
B3: 47 bp end-joined duplex DNA (dsDNA)
DNA 1: GTATCCTCGTAGTGCAGATGCGTCGTCGGACTGATTCGGTAGATCTG
DNA 2: B2 DNA 3
B4: 47 bp ligatable nicked DNA (dsDNA)
DNA 1: GTATCCTCGTAGTGCAGATGCGTC
DNA 2: GTCGGACTGATTCGGTAGATCTG
DNA 3: B2 DNA 3
modifications: 5'PO4 on downstream strand; 3'OH at nick
B5: 47 bp nicked DNA, 5'-adenylated (AppDNA) (dsDNA)
DNA 1: GTATCCTCGTAGTGCAGATGCGTC
DNA 2: GTCGGACTGATTCGGTAGATCTG
DNA 3: B2 DNA 3
modifications: 5'-App (adenylated 5'PO4) on downstream strand; 3'OH at nick
B6: Lig 103/107 QI-AA mutant (enzyme, S. solfataricus)
chain: T3 sequence with Q103A, I107A

The target of series [1] is T1, PCNA2 subunit of S. solfataricus PCNA. The series can be described thus: cryo-EM structure.
For series [2], the target named is T2, PCNA1 subunit of S. solfataricus PCNA. The series can be described thus: cryo-EM structure.
The target in series [3] is T3, DNA ligase from S. solfataricus (Lig), …. As to the kind of experiment: negative stain electron microscopy.
Series [4] deals with B1. As to the kind of experiment: fluorescence polarisation.
The target in series [5] is T4, PCNA_(1–2-3) heterotrimer of S. …. As to the kind of experiment: fluorescence polarisation.
For series [6], the target named is T5, PCNA1–2 heterodimer of S. solfataricus. The series can be described thus: fluorescence polarisation.
The target in series [7] is T6, DNA ligase (Lig);PCNA1-PCNA2-PCNA3 …. The series can be described thus: cryo-EM.
The target is the same in series [8]. As to the kind of experiment: cryo-EM. The source holds these as a separate data set.
Series [9] shares this target. As to the kind of experiment: gel filtration co-elution.
Series [10] shares this target. As to the kind of experiment: cryo-EM. This is another data set of the same source.
Series [11] deals with T4, PCNA_(1–2-3) heterotrimer of S. …. As to the kind of experiment: SEC.

As to B1, the binding result in series [1], in series [2] and in series [3] was “binds” throughout.

For the molecule KSKQQSTGILGFLGTTS (also: 6-FAM label, position not given here) [fluorescently labeled Lig loop peptide (17 residues, PIP motif)], the Kd in series [4] came to 32.5 ± 6.6 µM; in [5], 13.1 ± 2.5 µM; in series [6] it was 177 ± 74.4 µM.

Take B2: the binding result in series [7] is reported as “binds”.

In the case of B3, the binding result in series [8] was “binds”.

As for B4, the binding result in [9] is listed as “binds”.

Consider B5, for which the binding result in series [10] is on record as “binds”.

For the molecule B6, the binding result in [11] is reported as “binds”.
